Results reported in paper PMC12217166, “Conformational dynamics and membrane insertion mechanism of B4GALNT1 in ganglioside synthesis” (Nature Communications, 2025).

What was measured:
[1] = molecular target: His10-ΔN46-B4GALNT1 (human B4GALNT1 lumenal domain construct ΔN46) (human) (UniProt Q00973); test: non-reducing SDS-PAGE; purified protein in SDS loading dye without or with 50 mM DTT, heated 5 min at 95 °C, NuPAGE 4-12% Bis-Tris gel, Coomassie stain; dimer seen without reducing agent
[2] = molecular target: the molecule itself; test: as above

Question: With “His10-ΔN46-B4GALNT1 (human B4GALNT1 lumenal domain construct ΔN46) (from UniProt Q00973 47-533) (domain or fragment)” as the molecule, how does the stoichiometry N [1] read?
Answer: 2

B1: B4GALNT1 lumenal domain construct ΔN27 (entire lumenal domain, human) (domain or fragment)
chain: HHHHHHHHHHGTRDAPGLRLPLAPWAPPQSPRRPELPDLAPEPRYAHIPVRIKEQVVGLLAWNNCSCESSGGGLPLPFQKQVRAIDLTKAFDPAELRAASATREQEFQAFLSRSQSPADQLLIAPANSPLQYPLQGVEVQPLRSILVPGLSLQAASGQEVYQVNLTASLGTWDVAGEVTGVTLTGEGQADLTLVSPGLDQLNRQLQLVTYSSRSYQTNTADTVRFSTEGHEAAFTIRIRHPPNPRLYPPGSLPQGAQYNISALVTIATKTFLRYDRLRALITSIRRFYPTVTVVIADDSDKPERVSGPYVEHYLMPFGKGWFAGRNLAVSQVTTKYVLWVDDDFVFTARTRLERLVDVLERTPLDLVGGAVREISGFATTYRQLLSVEPGAPGLGNCLRQRRGFHHELVGFPGCVVTDGVVNFFLARTDKVREVGFDPRLSRVAHLEFFLDGLGSLRVGSCSDVVVDHASKLKLPWTSRDAGAETYARYRYPGSLDESQMAKHRLLFFKHRLQCMTSQ
modifications: N-linked glycosylation (3 predicted sites, positions not given)
Question: B1 was tested. Which “stoichiometry N” value [2] did it give?
Answer: 2
